From article PMC7438327 (Cell Death & Disease, 2020) come the findings set out here.

Assay [1] addresses T1, oligomycin sensitivity-conferring protein (OSCP), endogenous in HEK cells (human (endogenous in HEK), UniProt P48047 24-213).
T1 construct: OSCP subunit of the mitochondrial ATP synthase, immunoprecipitated or stained in HEK cell lines; also called OSCP subunit of the ATP synthase; source: endogenous, HEK CypD mutant cell lines
T1 sequence (looked up): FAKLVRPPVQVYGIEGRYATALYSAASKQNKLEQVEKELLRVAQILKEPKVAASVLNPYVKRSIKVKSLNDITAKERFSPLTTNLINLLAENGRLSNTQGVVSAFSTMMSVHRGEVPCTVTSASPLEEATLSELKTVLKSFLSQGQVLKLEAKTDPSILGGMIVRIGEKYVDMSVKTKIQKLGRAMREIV
The experiment in a line: co-IP; OSCP immunoprecipitation in HEK CypD mutant cell lines, immunoblots of CypD and OSCP; quantified as fold vs. WT. Particulars: partners not purified. In general terms: Immunoblotting shows a protein as a band on a membrane.

In assay [2] the target is T2, oligomycin sensitivity-conferring protein (OSCP) tagged with Clover GFP (UniProt P48047 24-213).
T2 construct: OSCP subunit of the mitochondrial ATP synthase; One vector carries OSCP-Clover and, downstream of an IRES, CypD-Scarlet; also called OSCP-Clover; OSCP subunit of the ATP synthase; source: HEK cells, transfected, in cells
T2 sequence (looked up): T1 sequence (looked up)
The experiment in a line: FRET or BRET; HEK cells transfected with OSCP-Clover and WT or mutant CypD-Scarlet downstream of an IRES; excitation 458 nm, emission 505-540 nm and 575-620 nm; FRET ratio. The settings on record: partners not purified.

B1: cyclophilin D (CypD) WT, rescued in HEK CypD-KO cells (natural protein)
chain: not shown
notes: also called WT group; source: HEK CypD-KO cells (CRISPR/Cas9) rescued with WT CypD, in cells or lysate
As to B1, the “CypD co-immunoprecipitated with OSCP, fold vs. WT” value in assay [1] stood at 1 fold vs. WT.

B2: cyclophilin D (CypD) phosphoresistant S191A mutant, rescued in HEK CypD-KO cells (natural protein)
chain: not shown
notes: also called phosphoresistant S191A group; source: HEK CypD-KO cells (CRISPR/Cas9) rescued with mutated CypD, in cells or lysate
On to B2, for which the “CypD co-immunoprecipitated with OSCP, fold vs. WT” value in assay [1] stood at 0.65 fold vs. WT.

B3: cyclophilin D (CypD) phosphomimetic S191E mutant, rescued in HEK CypD-KO cells (natural protein)
chain: not shown
notes: also called phosphomimetic S191E group; source: HEK CypD-KO cells (CRISPR/Cas9) rescued with mutated CypD, in cells or lysate
As for B3, the “CypD co-immunoprecipitated with OSCP, fold vs. WT” value in assay [1] came to 1.48 fold vs. WT.

B4: cyclophilin D (CypD) WT tagged with Scarlet (natural protein)
chain: not shown
notes: also called PPIF; source: HEK cells, transfected, in cells
Take B4: the FRET ratio in assay [2] is 1.92.

B5: cyclophilin D (CypD) phosphoresistant S191A mutant tagged with Scarlet (natural protein)
chain: not shown
notes: source: HEK cells, transfected, in cells
Take B5: the FRET ratio in assay [2] stood at 1.29.

B6: cyclophilin D (CypD) phosphomimetic S191E mutant tagged with Scarlet (natural protein)
chain: not shown
notes: also called phosphomimetic mutant S191E; source: HEK cells, transfected, in cells
B6: in assay [2], the FRET ratio was determined as 2.44.
